The source of these data is patent publication US20060057652A1.

The test addresses anaphase promoting complex subunit 1 (APC1) (Homo sapiens) (UniProt Q9H1A4). The experiment in a line: cell-based or functional assay.

anaphase promoting complex subunit 1 (APC1) (Homo sapiens), sequence (Q9H1A4 whole entry, one chain of several): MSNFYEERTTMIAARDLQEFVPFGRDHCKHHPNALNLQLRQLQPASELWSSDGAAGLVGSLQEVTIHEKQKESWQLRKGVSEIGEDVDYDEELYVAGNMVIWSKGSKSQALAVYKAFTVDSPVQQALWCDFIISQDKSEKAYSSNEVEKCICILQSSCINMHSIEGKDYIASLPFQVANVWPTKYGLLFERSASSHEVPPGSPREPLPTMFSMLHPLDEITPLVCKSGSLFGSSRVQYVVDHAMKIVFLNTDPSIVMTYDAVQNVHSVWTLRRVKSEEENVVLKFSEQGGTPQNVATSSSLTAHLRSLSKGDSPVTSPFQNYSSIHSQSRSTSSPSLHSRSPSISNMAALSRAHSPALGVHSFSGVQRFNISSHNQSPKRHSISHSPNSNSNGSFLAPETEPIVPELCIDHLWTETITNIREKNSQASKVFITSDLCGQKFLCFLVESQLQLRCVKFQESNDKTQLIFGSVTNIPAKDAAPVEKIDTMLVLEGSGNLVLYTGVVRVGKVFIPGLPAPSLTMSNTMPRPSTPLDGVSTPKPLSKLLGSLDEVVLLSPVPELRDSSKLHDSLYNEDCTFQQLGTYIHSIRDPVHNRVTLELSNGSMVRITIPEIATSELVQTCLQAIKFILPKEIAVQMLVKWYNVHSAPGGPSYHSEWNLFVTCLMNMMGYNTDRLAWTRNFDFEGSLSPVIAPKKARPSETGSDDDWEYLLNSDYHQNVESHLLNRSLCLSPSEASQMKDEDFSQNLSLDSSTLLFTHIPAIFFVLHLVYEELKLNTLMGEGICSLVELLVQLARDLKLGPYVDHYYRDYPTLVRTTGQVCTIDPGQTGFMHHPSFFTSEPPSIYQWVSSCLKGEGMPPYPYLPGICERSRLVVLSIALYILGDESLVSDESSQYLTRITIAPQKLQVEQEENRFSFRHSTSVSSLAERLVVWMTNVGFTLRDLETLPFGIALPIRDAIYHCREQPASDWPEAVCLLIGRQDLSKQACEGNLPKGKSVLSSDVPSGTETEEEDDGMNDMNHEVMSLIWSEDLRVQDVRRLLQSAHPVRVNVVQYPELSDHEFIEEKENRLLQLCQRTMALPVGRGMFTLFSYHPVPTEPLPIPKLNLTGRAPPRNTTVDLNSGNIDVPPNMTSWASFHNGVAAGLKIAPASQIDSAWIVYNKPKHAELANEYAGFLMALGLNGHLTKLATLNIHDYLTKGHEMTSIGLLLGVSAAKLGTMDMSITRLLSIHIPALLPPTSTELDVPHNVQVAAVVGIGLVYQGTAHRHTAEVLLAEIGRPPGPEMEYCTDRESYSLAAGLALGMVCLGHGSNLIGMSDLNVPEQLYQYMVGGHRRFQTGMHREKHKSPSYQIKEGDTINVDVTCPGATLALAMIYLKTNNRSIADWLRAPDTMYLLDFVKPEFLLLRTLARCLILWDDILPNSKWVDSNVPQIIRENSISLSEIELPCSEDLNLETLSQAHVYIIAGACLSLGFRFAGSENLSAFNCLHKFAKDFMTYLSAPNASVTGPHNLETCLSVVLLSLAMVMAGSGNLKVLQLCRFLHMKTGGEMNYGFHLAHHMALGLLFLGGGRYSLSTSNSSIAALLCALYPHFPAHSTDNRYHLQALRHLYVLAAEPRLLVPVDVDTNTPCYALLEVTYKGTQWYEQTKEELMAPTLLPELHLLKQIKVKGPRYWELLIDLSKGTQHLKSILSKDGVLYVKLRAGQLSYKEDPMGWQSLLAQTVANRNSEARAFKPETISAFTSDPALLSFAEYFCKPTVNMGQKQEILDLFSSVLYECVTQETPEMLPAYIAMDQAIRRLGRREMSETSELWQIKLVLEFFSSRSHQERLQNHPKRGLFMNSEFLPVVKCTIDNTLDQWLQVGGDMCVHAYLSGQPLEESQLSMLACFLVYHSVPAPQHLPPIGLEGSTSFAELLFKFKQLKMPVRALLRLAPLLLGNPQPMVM

In the case of “GFP-Ap(42-121) (from UniProt Q99152 42-121)”, the percent of wild-type killing activity (apoptotic morphology, H1299 cells) (percent of wild-type killing activity) stood at 67.

Regarding “GFP-Ap(82-121) (from UniProt Q99152 82-121)”, the percent of wild-type killing activity (apoptotic morphology, H1299 cells) (percent of wild-type killing activity) came out at 55.
